Results on 17 molecules are retold here after patent publication US20260258115A1 (MAPP BIOPHARMACEUTICAL, published 2026).

What all share (experiment): BLI, IgG
Background: BLI is a label-free optical method that tracks binding on a fibre tip over time.

For assay [1], the target named is T1, RSV postfusion F (postF), subtype B (respiratory syncytial virus, subtype B).
T1 construct: also called F ΔFP; Postfusion subtype B

In assay [2] the target is T2, RSV postfusion F (postF), subtype A (respiratory syncytial virus, subtype A, UniProt P03420 26-513).
T2 construct: also called F ΔFP; Postfusion subtype A

In assay [3] the target is RSV prefusion F (preF), subtype A (respiratory syncytial virus, subtype A, UniProt P03420 26-513).
Assay [4] addresses RSV prefusion F (preF), subtype B (respiratory syncytial virus, subtype B).

Numbering of substitutions follows the chain as printed.

B1: ADI-21040 (antibody, V domains shown)
VH: EVQLLESGPGLVKPSGTPSLTCAVSGVSITNSNNWWTWVRQPPGKGLEWIGEIYSSGSTNYSPSLKSRVTISLDKSKNQFSLKLSSVTAADTAVYYCARVLGYYGSGGGHLHSWGPGTLVTVSS
VL: SYELTQPPSASGTPGQRVTISCSGSSSNIGAGYDVHWYQQLPGTAPKLLISVNSNRPSGVPDRFSGSKSGTSASLAITGLQAEDEANYYCQSYDNSLSGYVVFGGGTKLTVL
The Kd is a measure of binding affinity in units of concentration. The low end stands for tighter binding, the high end for weaker binding. On to B1, for which the Kd in assay [1] came out at 1.03 nM; in assay [2] it was 0.777 nM. In assay [3], the binding result is given as “no binding”.

B2: ADI-14590 (antibody, V domains shown)
VH: EVQLVESGAEVKKPGESLKISCKGSGYSFATYWIGWVRQMPGKGLEWMGIIYPGDSDTRYSPSFQGQVTISADKSISTAYLQWSSLKASDTAIYYCARAKLPVAGLYYFDYWGQGTLVTVSS
VL: DIQLTQSPSSLSASVGDRVTITCRASQGISSTLAWYQQKPGKAPKLLIYDASSLESGVPSRFSGSGSGTDFTLTISSLHPEDFATYYCQQFNTYPTFGGGTKVEIK
As for B2, the equilibrium dissociation constant (Kd) in assay [4] turned out to be 5.99 nM; in assay [1], 0.967 nM; in assay [2], 2.68 nM; in assay [3], 13.2 nM.

B3: ADI-21053 (antibody, V domains shown)
VH: QVQLQESGPGLVKPSQTLSLTCTVSGVSISNSSGGYYWSWIRQHPGKGLEWIGYIYYSGSTYYNPSSGSTYYNPSLKSRVTVSVDTSKNQFSLKLTSVTAADTAVYYCARDIRGPHKHSLYNWFHPWGQGTLVTVSS
VL: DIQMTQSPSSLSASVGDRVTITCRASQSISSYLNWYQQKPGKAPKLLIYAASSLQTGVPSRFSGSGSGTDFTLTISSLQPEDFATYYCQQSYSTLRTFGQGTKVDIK
With B3, the Kd came out at 118 nM in assay [1], 6.37 nM in assay [2] and 71 nM in assay [3].

B4: ADI-14573 (antibody, V domains shown)
VH: QVQLVQSGAEVKKPGASVKVSCKASGYTFTTYGISWVRQAPGQGLEWMGWISTYKTYTNYAQKFQGRVTMTTDTSTSTAYMELRSLRSDDTAVYYCAKVAGGSGSYGDYWGQGTLVTVSS
VL: QPVLTQPPSVSVAPGKTARITCGGNNIGSKSVHWYLQKPGQAPVLVIYYDSDRPSGIPERFSGSNSGNTATLTISRVEAGDEADFFCQVWDSSSDHWVFGGGTKVTVL
For the molecule B4, the Kd was 21 nM in assay [4], 3.55 nM in assay [1] and 0.373 nM in assay [2]. In assay [3], the binding result is “no binding”.

B5: ADI-14421 (antibody, V domains shown)
VH: QVQLVQSGAEVKKPGESLKISCKGSGYNSSINWIGYWIGWVRQMPGKGLEWMGIINPGDSDTRYSPSFQGQVTISVDKSISTAYLQWGSLKASDTAMYYCARRAYRSGWHFDLWGRGTLVTVSS
VL: EIVMTQSPATLSVSPGERATLTCRASQSVSSNLAWYQQKPGQAPRLLIYGASTRATGIPARFSGSGSGTQFTLTISSLQSEDFAVYYCQHYNNWPPYTFGQGTKVEIK
notes: also called Ab 87
Consider B5, for which the equilibrium dissociation constant (Kd) in assay [4] worked out at 2.82 nM; in assay [1] it was 0.74 nM; in assay [2] it was 1.07 nM. Besides, the binding result in assay [3] is on record as “no binding”.

B6: ADI-14418 (antibody, V domains shown)
VH: QVQLVQSGAEVKKPGSSVKVSCKASGGTFTNYNINWVRQAPGQGLQWMGRISPTFAIANYAQKFQGRVTITADKSTSTAYMELSSLRSEDTAVYYCARAPHSGYDLALDYWGQGTLVTVSS
VL: DIQMTQSPSTLSASVGDRVTITCRASQSISSWLAWYQQKPGKAPKLLIYEASSLQSGVPSRFSGSGSGTEFTLTITSLQPDDFATYYCQQYNVYPWTFGQGTKVDIK
notes: also called Ab 84
Consider B6, for which the Kd in assay [4] was found to be 1.58 nM; in assay [1], 0.258 nM; in assay [2] it was 0.441 nM; in assay [3] it was 1.25 nM.

B7: ADI-14405 (antibody, V domains shown)
VH: QVQLVQSGTEVKKPGASVKVSCKASGYTFTNYDISWVRQAPGQGLEWMGWISGSTGNTIYAQNLQGRLTMTTDTSTSTAYMELRSLRSDDTAIYYCARDNVGYASGNYFDYWGQGTLVTVSS
VL: SYVLTQPPSVSVAPGKTARIPCGGNNIGSKSVHWYQQRPGQAPVLVIYYDSVRPSGIPERFSGSNSGNTATLTISTVEAGDEADFYCQVWDSSRDHEVFGGGTKLTVL
notes: also called Ab 71
Regarding B7, the dissociation constant Kd in assay [4] was 0.227 nM; in assay [1], 38 nM; in assay [2] it was 11.7 nM; in assay [3], 0.142 nM.

B8: ADI-14595 (antibody, V domains shown)
VH: EVQLLESGGGLVQPGGSLRLSCAASGFTFSIYSMNWVRQAPGKGLEWISYISRSGSTIFYADSVKGRFTISRDDAKNSLFLQMTSLRDADTAVYYCARVDCSNNKCYDYWGQGTLVTVSS
VL: DIQLTQSPATLSLSPGERATLSCRASQSISSFLAWYQQKPGQAPRLLIYDASKRATGTPARFSGGGSGRDFTLTISSLEPEDFAVYYCQQRSSWPLYTFGQGTKVEIK
For B8, the equilibrium dissociation constant (Kd) in assay [4] was 16 nM; in assay [1], 14.4 nM; in assay [2], 1.3 nM; in assay [3], 2.19 nM.

B9: ADI-14592 (antibody, V domains shown)
VH: QVQLVQSGAEVKKPGESLKISCKGSGYTFTNYWIGWVRQMPGKGLEWMGIIYPDDSDTRYSPSFQGQVTISVDKSINTAYLQWSSLRASDTAIYYCACSNWPHYFDSWGQGTLVTVSS
VL: NFMLTQPHSVSESPGKTVTISCTRSSGNIAGNYVQWYQQRPGSAPTTVIYEDNQRPSGVPDRFSGSIDSSSNSASLTISGLKTEDEAVYYCQSYHPGNWVFGGGTKLTVL
Consider B9, for which the equilibrium dissociation constant (Kd) in assay [4] was 0.301 nM; in assay [1], 0.0932 nM; in assay [2], 0.136 nM; in assay [3], 2.4 nM.

B10: ADI-14593 (antibody, V domains shown)
VH: QVQLVQSGAEVKKPGESLKISCKGSGYSFSSYWVAWVRQMPGKGLEWMGIIYPADSDTRYSPSFQGQVTISADKSDSTAYLQWGSLKASDTAMYYCARSLYGSGDYFDYWGQGTLVTVSS
VL: B9 VL with K16R, T19I, N28S, G31T, V88D, H95G, P96S, N98D, W99V, L107V
Take B10: the Kd was determined as 0.358 nM in assay [4], 0.108 nM in assay [1], 0.161 nM in assay [2] and 2.33 nM in assay [3].

B11: ADI-14393 (antibody, V domains shown)
VH: QVQLVESGGGLVKPGGSLRLSCAASGFSFTGFYMNWVRQAPGKGLEWVSSISSSSTYKNYADSLQGRFTISRDNARSSLYLQMNSLRAEDTAVYYCARTRTEYTYGYYHDFWGQGTLVTVSS
VL: QPVLTQPPSVSGAPGQRVTISCTGSSSNIGAGYDVHWYQQVPGTAPKLLIYNNNNRPSGVPDRFSGSKSGTSASLAITGLQAEDEADYYCQSYDSRLSGVFGGGTKLTVL
notes: also called Ab 60
In the case of B11, the dissociation constant Kd was determined as 0.474 nM in assay [4], 11.7 nM in assay [1] and 0.311 nM in assay [3]. Moreover, the binding result in assay [2] is given as “no binding”.

B12: ADI-14594 (antibody, V domains shown)
VH: QVQLVQSGAEVKKPGASVKLSCKASGYTFTTYTINWVRQAPGQGLEWMGWISGYNGNTDYAQKLQGRFTMTTDTSTNTAYMELRSLTSDDTAVYYCAKGGGGSESYFDYWGQGTLVTVSS
VL: SYELTQPPSVSVAPGKTARISCGGNNIGSKSVHWYQQKPGQAPVLVIYYDRDRPSGIPERFSGSNSGNTATLTISRVEAGDEADYYCQLWDRSSDHPYVFGTGTKVTVL
As to B12, the figures for the Kd in assay [4], in assay [1] and in assay [2] were 18.2 nM, 0.214 nM and 0.257 nM, respectively. The binding result in assay [3] was “no binding”.

B13: ADI-14425 (antibody, V domains shown)
VH: QVQLQESGPGLVKPSETLSLTCTVSGGSVRSGSYYWSWIRQPPGKALEWIGYIYYSGSTNYNPALESRVTISVDTSKNQFSLMLSSVTAADTAVYYCARSAEGLARLYYFDHWGQGTLVTVSS
VL: QSVLIQPASVSGSPGQSITISCTGTSSDVGGYNYVSWYQQHPGKAPKLMIHDVSNRPSGVSNRFSGSKSGNTASLTISGLQAEDEADYYCSTYRSSNTLVVFGGGTKLTVL
notes: also called Ab 91
Take B13: the dissociation constant Kd in assay [4] is 20.3 nM; in assay [1], 9.34 nM; in assay [2] it was 0.742 nM; in assay [3] it was 48.1 nM.

B14: ADI-14406 (antibody, V domains shown)
VH: QVQLVQSGAEVKKPGESLKISCKGSGYKFTNYWIAWVRQMPGKGLEWLGVIYPGASDITYSPSFQGQVTISADKSISTAYLQWSSLKASDTAIYYCARQGSITAMSYWGQGTMVTVSS
VL: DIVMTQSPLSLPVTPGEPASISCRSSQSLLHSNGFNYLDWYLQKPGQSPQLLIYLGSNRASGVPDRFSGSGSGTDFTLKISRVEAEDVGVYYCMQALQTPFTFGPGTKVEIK
notes: also called Ab 72
On to B14, for which the dissociation constant Kd is 0.906 nM in assay [4], 0.473 nM in assay [1], 0.339 nM in assay [2] and 6.85 nM in assay [3].

B15: ADI-14416 (antibody, V domains shown)
VH: QVQLVQSGAEVKKPGESLKISCKGSGDTFSRNWIGWVRQMPGKGLEWMGIIWPGDSDTRYRQFFQGQQGQVIISVDKSISTAYLQWSSLKASDTATYYCATSPYGLGSYYEHWGQGTLVTVSS
VL: NFMLTQPHSLSDSPGKTVVISCTRSSGSIASNYVQWYQQRPGSAPTTVIYEDNQRPSGVPDRFSGSIDSSSNSASLTISGLKTEDEADYYCQSYDSSNPYVFGTGTKVTVL
notes: also called Ab 82
Regarding B15, the equilibrium dissociation constant (Kd) in assay [4] turned out to be 0.369 nM; in assay [1], 0.106 nM; in assay [2], 0.182 nM; in assay [3], 2.39 nM.

B16: ADI-14599 (antibody, V domains shown)
VH: EVQLVESGGGLVQPGRSLRLSCKTSGFTFGDYAMSWVRQAPGQGLDWVGFIRTKAYGGTTEYAASVKGRFTLSRDDSKSIAYLQMNSLKTEDTAVYYCKSGGQFDYWGRGTLVTVSS
VL: B15 VL with L10V, D12G, V19T, R24G, Y50C, S96R, P99Q, Y100E, T104G, V108L
For the molecule B16, the Kd amounted to 0.622 nM in assay [4], 0.358 nM in assay [1], 0.636 nM in assay [2] and 0.102 nM in assay [3].

B17: ADI-14589 (antibody, V domains shown)
VH: QITLKESGPVLVKPSETLTLTCTVSGFSLSNAKMGVSWIRQPPGKALEWLAHIFSNDEKSYNTSLKNRLTISKDTSKSQVVLTMTNMDTVDTATYYCARINYYDSSGYYLANFDYWGQGTLVTVSS
VL: NIRLTQSPSSLSASVGDRVTITCRASQRIASYLNWYQQKPGHAPKLLIHAASSLQSGVPSRFSGSGSGTDFTLTINSLLPEDFATYYCQQSYSSPPHSSPPLTFGGGTKVEIK
With B17, the Kd in assay [4] amounted to 28.2 nM; in assay [1], 15.4 nM; in assay [2], 0.596 nM; in assay [3], 6.48 nM.
